From patent US20180057581A1 (MorphoSys, published 2018)
Where a chain is given by its changes, count along the chain named. Names may count otherwise.

T1: human cell-surface M-CSF on stably transfected CHO cells (human, UniProt P09603 33-554)
T1 construct: also called csM-CSF
T1 sequence: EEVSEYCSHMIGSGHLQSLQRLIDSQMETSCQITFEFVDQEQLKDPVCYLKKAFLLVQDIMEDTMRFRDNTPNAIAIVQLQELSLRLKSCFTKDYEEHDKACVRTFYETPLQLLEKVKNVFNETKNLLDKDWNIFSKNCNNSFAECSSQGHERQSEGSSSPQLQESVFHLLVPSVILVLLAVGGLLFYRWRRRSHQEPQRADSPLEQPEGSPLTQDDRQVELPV

T2: Recombinant cynomolgus monkey sgM-CSF (cynomolgus (Macaca fascicularis), UniProt P09603 33-255 (human entry), limits assumed)
T2 construct: used also where only 'cynomolgus M-CSF' is printed (ELISA result, SET); also called cynomolgus sgM-CSF; cyno sgM-CSF
T2 chain: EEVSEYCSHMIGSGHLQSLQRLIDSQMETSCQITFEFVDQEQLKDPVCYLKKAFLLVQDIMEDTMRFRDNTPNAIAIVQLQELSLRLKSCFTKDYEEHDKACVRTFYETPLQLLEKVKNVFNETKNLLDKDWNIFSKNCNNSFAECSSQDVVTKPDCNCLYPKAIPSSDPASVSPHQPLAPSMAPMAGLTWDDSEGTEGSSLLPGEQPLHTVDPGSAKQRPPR

T3: human M-CSF (human, UniProt P09603 33-255, limits assumed)
T3 construct: also called M-CSF (human); CSF-1
T3 sequence: T2 chain with M186V, D192E

T4: Recombinant human sgM-CSF (human, UniProt P09603 33-255)
T4 sequence: T2 chain with M186V, D192E

B1: 8.10.3F, IgG2 (antibody, V domains shown)
VH: EVQLVESGGGLVQPGGSLRLSCAASGFTFSSFSMTWVRQAPGKGLEWVSYISSRSSTISYADSVKGRFTISRDNAKNSLYLQMNSLRDEDTAVYYCARDPLLAGATFFDYWGQGTLVTVSS
VL: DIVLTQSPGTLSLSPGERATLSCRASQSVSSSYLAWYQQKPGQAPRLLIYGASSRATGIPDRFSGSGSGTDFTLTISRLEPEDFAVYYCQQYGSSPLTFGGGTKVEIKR
notes: tested as IgG2; also called 8.10.F3
B2: 8.10.3F, IgG1_D265A (antibody, V domains shown)
VH: B1 VH
VL: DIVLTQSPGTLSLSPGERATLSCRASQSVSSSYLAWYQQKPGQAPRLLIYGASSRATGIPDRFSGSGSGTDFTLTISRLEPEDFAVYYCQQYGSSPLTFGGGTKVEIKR
notes: Prior art antibody; tested as IgG1 with D265A in the Fc (EU index); also called 8.10.F3
B3: HeRX1-10G1, IgG1 (antibody, V domains shown)
VH: QVQLQESGPGLVKPSQTLSLTCTVSDYSITSDYAWNWIRQFPGKGLEWMGYISYSGSTSYNPSLKSRITISRDTSKNQFSLQLNSVTAADTAVYYCASFDYAHAMDYWGQGTTVTVSS
VL: DIVLTQSPAFLSVTPGEKVTFTCQASQSIGTSIHWYQQKTDQAPKLLIKYASESISGIPSRFSGSGSGTDFTLTISSVEAEDAADYYCQQINSWPTTFGGGTKLEIKR
notes: tested as IgG1
B4: HeRX1-10G1, IgG1_D265A (antibody, V domains shown)
VH: B3 VH
VL: B3 VL
notes: Prior art antibody; tested as IgG1 with D265A in the Fc (EU index)
B5: Blanche, IgG1_D265A (antibody, V domains shown)
VH: QVQLQQSGPGLVKPSQTLSLTCAISGDSVSSNSAAWNWIRQSPSRGLEWLGRTYYRSKWKHEYAMSVKSRITINPDTSKNQFSLQLNSVTPEDTAVYYCARDRYYYSAFDYWGQGTLVTVSS
VL: DIALTQPASVSGSPGQSITISCTGTSSDVGGYNSVSWYQQHPGKAPKLMIYAVSNRPSGVSNRFSGSKSGNTASLTISGLQAEDEADYYCASYDERFTRVFGGGTKLTVLG
notes: tested as IgG1 with D265A in the Fc (EU index); Parental antibody of Caline, Camille, Celine
B6: Meriem, IgG1_D265A (antibody, V domains shown)
VH: B5 VH with S31T, N32S, H61K, M65Q
VL: B5 VL with D1Q, I2S, M49I
notes: tested as IgG1 with D265A in the Fc (EU index)
B7: Maelle, IgG1_D265A (antibody, V domains shown)
VH: B5 VH with D27E, S31T, N32S, H61K, M65Q
VL: B5 VL with D1Q, I2S, M49I
notes: as for B6
B8: Camille, IgG1_D265A (antibody, V domains shown)
VH: B5 VH with D27E, S31T, N32S, M65V
VL: B5 VL with D1Q, I2S, M49L
notes: as for B6
B9: Laurine, IgG1_D265A (antibody, V domains shown)
VH: B5 VH with H61K, M65Q
VL: B5 VL
notes: tested as IgG1 with D265A in the Fc (EU index); Parental antibody of Madeleine, Maelle, Meriem
B10: Caline, IgG1_D265A (antibody, V domains shown)
VH: B5 VH
VL: B5 VL with D1Q, I2S
notes: as for B6
B11: Celine, IgG1_D265A (antibody, V domains shown)
VH: B5 VH with S31T, N32S, M65V
VL: B5 VL with D1Q, I2S, M49I
notes: as for B6
B12: Madeleine, IgG1_D265A (antibody, V domains shown)
VH: B5 VH with H61K, M65Q
VL: B5 VL with D1Q, I2S
notes: as for B6
B13: Romaine, IgG1_D265A (antibody, V domains shown)
VH: EVQLVESGGGLVKPGGSLRLSCAASGFTFSIYAMSWVRQAPGKGLEWVGRIKSNADGGTTEYAAPVKGRFTISRDDSKNTLYLQMNSLKTEDTAVYYCARMRYYSDLYFDPWGQGTLVTVSS
VL: DIELTQPPSVSVSPGQTASITCSGDAIGSKYVHWYQQKPGQAPVLVISKDNKRPSGIPERFSGSNSGNTATLTISGTQAEDEADYYCQTATVSSYWWVFGGGTKLTVLG
notes: tested as IgG1 with D265A in the Fc (EU index); Parental antibody of Satine, Servane
B14: Satine, IgG1_D265A (antibody, V domains shown)
VH: B13 VH
VL: SYELTQPPSVSVSPGQTASITCSGDKLGQKYVSWYQQKPGQSPVLVISQDRKRPSGIPERFSGSNSGNTATLTISGTQAEDEADYYCQTWTHLQWVFGGGTKLTVLG
notes: as for B6
B15: Servane, IgG1_D265A (antibody, V domains shown)
VH: B13 VH with I31T, M34I, R50F, N54K, A55H, D56N, G57S
VL: B14 VL
notes: as for B6
B16: Madeleine (format not stated) (antibody, V domains shown)
VH: B5 VH with H61K, M65Q
VL: B5 VL with D1Q, I2S
B17: Celine (format not stated) (antibody, V domains shown)
VH: B5 VH with S31T, N32S, M65V
VL: B5 VL with D1Q, I2S, M49I
B18: Caline (format not stated) (antibody, V domains shown)
VH: B5 VH
VL: B5 VL with D1Q, I2S

Target: T1, human cell-surface M-CSF on stably …
Assay: FACS, CHO cells stably transfected with M-CSF (n = 3)

| Binder | EC50 [nM] |
| --- | --- |
| B1 | 23.2 |
| B2 | 8.9 |
| B3 | 12.6 |
| B4 | 8.9 |
| B5 | 7.5 |
| B6 | 12.3 |
| B7 | 10.2 |
| B8 | 6.1 |
| B9 | 11.2 |
| B10 | 9.8 |
| B11 | 9.7 |
| B12 | 6.4 |
| B13 | 16.4 |
| B14 | 11.3 |
| B15 | 21.3 |

Target: T2, Recombinant cynomolgus monkey sgM-CSF
Assay: MSD receptor binding inhibition: 12.5 pM cynomolgus sgM-CSF preincubated with antibody, binding to coated human CSF1-R-Fc
Method: (§1) Complexes were then transferred to 384 well MSD plates coated with 2 μg/ml of the corresponding receptor. Plates were then washed and incubated with the streptavidin/ECL conjugate for 2 h with shaking at room temperature. 35 μl MSD read buffer T with surfactant was then added per well and subsequently measured using MSD Sector Imager 6000.

| Binder | IC50 [nM] |
| --- | --- |
| B1 | 0.0207 |
| B2 | 0.0146 |
| B3 | 0.0276 |
| B4 | 0.018 |
| B5 | 0.0066 |
| B6 | 0.0073 |
| B7 | 0.0064 |
| B8 | 0.0059 |
| B9 | 0.0043 |
| B10 | 0.0063 |
| B11 | 0.0069 |
| B12 | 0.0056 |
| B13 | 0.0091 |
| B14 | 0.0135 |
| B15 | 0.0118 |

Target: T3, human M-CSF
Assay: ELISA
Method: (§2) BSA was used as a negative control substrate.
(§3) After blocking of plates with 5% skim milk powder in PBS, Fab-containing E. coli lysates, IgG-containing cell culture supernatants or purified IgG or Fab proteins were added. Binding of Fabs or IgGs was detected by F(ab)₂ specific goat anti-human IgG conjugated to alkaline phosphatase (Dianova Cat# 109-055-097; diluted 1:5000) using Attophos fluorescence substrate (Roche, #11681982001). Fluorescence emission at 535 nm was recorded with excitation at 430 nm.

| Binder | ELISA fluorescence units [units] |
| --- | --- |
| B16 | > 35000 |
| B17 | > 35000 |
| B18 | > 35000 |

Target: T2, Recombinant cynomolgus monkey sgM-CSF
Assay: ELISA
Method: as §2, §3

| Binder | ELISA fluorescence units [units] |
| --- | --- |
| B16 | > 35000 |
| B17 | > 35000 |
| B18 | > 35000 |

Target: T4, Recombinant human sgM-CSF
Assay: cell-based or functional assay

| Binder | IC50, inhibition of M-NFS-60 proliferation induced by recombinant human M-CSF (9.5 pM) [pM] |
| --- | --- |
| B1 | 71.1 |
| B2 | 14.9 |
| B3 | 3.6 |
| B4 | 3 |
| B5 | 2.9 |
| B6 | 3.1 |
| B7 | 2.7 |
| B8 | 2.3 |
| B9 | 2.6 |
| B10 | 3.1 |
| B11 | 2.7 |
| B12 | 3 |
| B13 | 8.4 |
| B14 | 5.3 |
| B15 | 11.8 |

Target: T2, Recombinant cynomolgus monkey sgM-CSF
Assay: cell-based or functional assay

| Binder | IC50, inhibition of M-NFS-60 proliferation induced by recombinant cynomolgus M-CSF (9.5 pM) [pM] |
| --- | --- |
| B1 | 84.6 |
| B2 | 16.5 |
| B3 | 4.1 |
| B4 | 3.5 |
| B5 | 3.3 |
| B6 | 2.8 |
| B7 | 2.3 |
| B8 | 2.6 |
| B9 | 2.8 |
| B10 | 4.3 |
| B11 | 3 |
| B12 | 2.8 |
| B13 | 8.1 |
| B14 | 5.4 |
| B15 | 13.4 |

Target: T4, Recombinant human sgM-CSF
Assay: MSD receptor binding inhibition: 12.5 pM human sgM-CSF preincubated with antibody, binding to coated human CSF1-R-Fc
Method: as §1

| Binder | IC50 [nM] |
| --- | --- |
| B1 | 0.0314 |
| B2 | 0.0192 |
| B3 | 0.0265 |
| B4 | 0.028 |
| B5 | 0.0062 |
| B6 | 0.007 |
| B7 | 0.0053 |
| B8 | 0.0044 |
| B9 | 0.0049 |
| B10 | 0.0061 |
| B11 | 0.0047 |
| B12 | 0.0056 |
| B13 | 0.0091 |
| B14 | 0.0151 |
| B15 | 0.0313 |
